The text below walks through data of patent publication US20100144634A1 (published 2010).

Test [1] concerns the target T1, von Willebrand factor (VWF), purified plasma-derived, multimeric, native (UniProt P04275 764-2813).
T1 construct: mature; human is implied; also called pvWF; plasma VWF
The test is described as follows: pull-down on VWF-Affi-gel 10, western blot with anti-V5 (FIG. 5B); the microtiter result is given with a literature citation. The procedure: FIG. 5. Binding of ADAMTS13 (or variants) to VWF immobilized on solid surfaces. A. Binding of ADAMTS13 and variants to VWF immobilized on a microtiter plate: FL-A13, delCUB and MDTCS (0-200 nM) were incubated without (control) or with VWF (10 μg/ml, 100 μl/well) immobilized on a microtiter plate for 1 h. The bound ADAMTS13 and variants were determined by mouse anti-V5 IgG, followed by rabbit anti-mouse IgG, peroxidase-conjugated and OPD-H₂O₂. The KD (S) was determined by fitting the data into non-linear regression. B. Binding of ADAMTS13 and variants to immobilized VWF on Affi-gel 10: FL-A13, delCUB, MDTCS and metalloprotease domain (M) (˜50 nM) were incubated at 37° C. for 1 h without (−) or with (+) VWF covalently immobilized onto the Affi-gel 10. After extensive washing with TBS and 20 mM Tris-HCl, pH 7.5, […], the bound ADAMTS13 and variants were eluted from the beads with SDS-gel sample buffer and determined by Western blot with anti-V5. The amount of input FL-A13, delCUB, and MDTCS is the same with the signal of only FL-A13 shown in lane 1 (IN).
The binding of ADAMTS13 to immobilized Affi-gel 10 was also described previously²². […] The bound FL-A13 and variants were eluted from the beads by boiling them at 100° C. for 10 min and detected by Western blotting with anti-V5 IgG as described previously^{22;24;29}.
In general terms: Immunoblotting shows a protein as a band on a membrane.

Test [2] has as its target T2, murine vWF (murine, UniProt Q8CIZ8 764-2813, limits assumed).
T2 construct: also called immobilized murine vWF
As to the kind of experiment: microtiter binding assay, immobilised murine vWF.

T2 sequence (Q8CIZ8 764-2813 limits assumed): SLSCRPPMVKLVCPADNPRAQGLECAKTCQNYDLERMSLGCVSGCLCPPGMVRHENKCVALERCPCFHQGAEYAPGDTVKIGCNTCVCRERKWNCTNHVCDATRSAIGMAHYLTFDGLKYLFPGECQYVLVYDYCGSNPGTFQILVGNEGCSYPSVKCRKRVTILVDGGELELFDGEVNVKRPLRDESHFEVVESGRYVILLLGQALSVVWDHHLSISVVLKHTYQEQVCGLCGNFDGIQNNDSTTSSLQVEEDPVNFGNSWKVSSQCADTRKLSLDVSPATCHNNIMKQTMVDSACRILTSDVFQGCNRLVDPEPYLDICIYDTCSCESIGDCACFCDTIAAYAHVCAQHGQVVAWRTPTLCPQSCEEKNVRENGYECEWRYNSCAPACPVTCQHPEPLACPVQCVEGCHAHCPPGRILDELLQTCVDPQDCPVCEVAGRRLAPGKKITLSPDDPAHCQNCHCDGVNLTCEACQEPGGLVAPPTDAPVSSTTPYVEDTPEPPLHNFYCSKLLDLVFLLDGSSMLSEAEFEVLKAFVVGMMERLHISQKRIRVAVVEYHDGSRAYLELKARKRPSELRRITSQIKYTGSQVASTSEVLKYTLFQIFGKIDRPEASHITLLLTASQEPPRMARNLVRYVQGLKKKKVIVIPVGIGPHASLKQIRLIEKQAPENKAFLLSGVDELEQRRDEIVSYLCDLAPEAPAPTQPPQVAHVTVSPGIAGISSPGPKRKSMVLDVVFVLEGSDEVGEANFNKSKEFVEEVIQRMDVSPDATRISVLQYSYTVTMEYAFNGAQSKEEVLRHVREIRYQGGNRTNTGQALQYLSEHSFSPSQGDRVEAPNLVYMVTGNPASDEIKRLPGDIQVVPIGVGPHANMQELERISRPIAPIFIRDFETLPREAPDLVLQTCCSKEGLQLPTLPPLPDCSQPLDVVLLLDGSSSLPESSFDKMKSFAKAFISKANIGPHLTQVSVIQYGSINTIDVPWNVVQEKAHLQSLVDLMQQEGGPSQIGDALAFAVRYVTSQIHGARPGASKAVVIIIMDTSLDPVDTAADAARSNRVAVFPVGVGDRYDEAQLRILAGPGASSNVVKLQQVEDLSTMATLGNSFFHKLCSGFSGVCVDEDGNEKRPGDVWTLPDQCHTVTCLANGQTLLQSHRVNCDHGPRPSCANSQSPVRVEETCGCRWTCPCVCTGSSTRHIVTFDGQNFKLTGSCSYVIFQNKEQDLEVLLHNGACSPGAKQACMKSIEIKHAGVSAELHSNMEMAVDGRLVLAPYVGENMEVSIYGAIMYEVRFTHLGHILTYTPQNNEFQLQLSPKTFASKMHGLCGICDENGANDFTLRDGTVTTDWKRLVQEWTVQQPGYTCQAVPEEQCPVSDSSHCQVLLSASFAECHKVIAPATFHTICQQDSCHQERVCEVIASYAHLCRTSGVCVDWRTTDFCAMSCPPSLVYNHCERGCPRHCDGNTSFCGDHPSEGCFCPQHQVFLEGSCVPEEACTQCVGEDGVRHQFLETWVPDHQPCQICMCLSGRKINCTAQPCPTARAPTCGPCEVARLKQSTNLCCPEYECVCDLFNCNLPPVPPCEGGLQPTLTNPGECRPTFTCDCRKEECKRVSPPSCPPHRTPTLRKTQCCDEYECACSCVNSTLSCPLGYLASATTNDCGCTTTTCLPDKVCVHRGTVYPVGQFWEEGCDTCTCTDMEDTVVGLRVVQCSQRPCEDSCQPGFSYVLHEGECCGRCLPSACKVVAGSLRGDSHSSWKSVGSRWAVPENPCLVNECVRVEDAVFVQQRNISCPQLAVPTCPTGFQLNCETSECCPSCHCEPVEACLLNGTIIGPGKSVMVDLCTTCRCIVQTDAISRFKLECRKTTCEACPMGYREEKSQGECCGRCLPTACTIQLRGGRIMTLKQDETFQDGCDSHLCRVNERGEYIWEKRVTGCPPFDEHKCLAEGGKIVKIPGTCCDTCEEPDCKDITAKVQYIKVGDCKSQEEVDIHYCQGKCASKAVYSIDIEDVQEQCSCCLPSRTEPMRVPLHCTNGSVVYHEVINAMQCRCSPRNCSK

B1: ADAMTS13 metalloprotease domain alone (enzyme, UniProt Q76LX8 75-289, looked up)
chain: AAGGILHLELLVAVGPDVFQAHQEDTERYVLTNLNIGAELLRDPSLGAQFRVHLVKMVILTEPEGAPNITANLTSSLLSVCGWSQTINPEDDTDPGHADLVLYITRFDLELPDGNRQVRGVTQLGGACSPTWSCLITEDTGFDLGVTIAHEIGHSFGLEHDGAPGSGCGPSGHVMASDGAAPRAGLAWSPCSRRQLLSLLSAGRARCVWDPPRPQ
notes: domain: metalloprotease domain
With B1, the binding result in test [1] was “no binding”.

B2: canine FVIII-SQ (other, UniProt O18806 20-2343, looked up)
chain: ATRKYYLGAVELSWDYMQSDLLSALHADTSFSSRVPGSLPLTTSVTYRKTVFVEFTDDLFNIAKPRPPWMGLLGPTIQAEVYDTVVIVLKNMASHPVSLHAVGVSYWKASEGAEYEDQTSQKEKEDDNVIPGESHTYVWQVLKENGPMASDPPCLTYSYFSHVDLVKDLNSGLIGALLVCKEGSLAKERTQTLQEFVLLFAVFDEGKSWHSETNASLTQAEAQHELHTINGYVNRSLPGLTVCHKRSVYWHVIGMGTTPEVHSIFLEGHTFLVRNHRQASLEISPITFLTAQTFLMDLGQFLLFCHIPSHQHDGMEAYVKVDSCPEEPQLRMKNNEDKDYDDGLYDSDMDVVSFDDDSSSPFIQIRSVAKKHPKTWVHYIAAEEEDWDYAPSGPTPNDRSHKNLYLNNGPQRIGKKYKKVRFVAYTDETFKTREAIQYESGILGPLLYGEVGDTLLIIFKNQASRPYNIYPHGINYVTPLHTGRLPKGVKHLKDMPILPGEIFKYKWTVTVEDGPTKSDPRCLTRYYSSFINLERDLASGLIGPLLICYKESVDQRGNQMMSDKRNVILFSVFDENRSWYLTENMQRFLPNADVVQPHDPEFQLSNIMHSINGYVFDNLQLSVCLHEVAYWYILSVGAQTDFLSVFFSGYTFKHKMVYEDTLTLFPFSGETVFMSMENPGLWVLGCHNSDFRNRGMTALLKVSSCNRNIDDYYEDTYEDIPTPLLNENNVIKPRSFSQNPPVSKHHQREITVTTLQPEEDKFEYDDTFSIEMKREDFDIYGDYENQGLRSFQKKTRHYFIAAVERLWDYGMSRSPHILRNRAQSGDVQQFKKVVFQEFTDGSFTQPLYRGELNEHLGLLGPYIRAEVEDNIVVTFKNQASRPYSFYSSLISYDEDEGQGAEPRRKFVNPNETKIYFWKVQHHMAPTKDEFDCKAWAYFSDVDLEKDVHSGLIGPLLICRSNTLNPAHGRQVTVQEFALVFTIFDETKSWYFTENLERNCRAPCNVQKEDPTLKENFRFHAINGYVKDTLPGLVMAQDQKVRWYLLSMGSNENIHSIHFSGHVFTVRKKEEYKMAVYNLYPGVFETVEMLPSQVGIWRIECLIGEHLQAGMSTLFLVYSKKCQTPLGMASGHIRDFQITASGQYGQWAPKLARLHYSGSINAWSTKDPFSWIKVDLLAPMIIHGIMTQGARQKFSSLYVSQFIIMYSLDGNKWHSYRGNSTGTLMVFFGNVDSSGIKHNIFNPPIIAQYIRLHPTHYSIRSTLRMELLGCDFNSCSMPLGMESKAISDAQITASSYLSSMLATWSPSQARLHLQGRTNAWRPQANNPKEWLQVDFRKTMKVTGITTQGVKSLLISMYVKEFLISSSQDGHNWTLFLQNGKVKVFQGNRDSSTPVRNRLEPPLVARYVRLHPQSWAHHIALRLEVLGCDTQQPA
notes: also called canine B-domain deleted factor VIII
As a reminder, the Kd is the free concentration of one partner at which half of the binding sites on the other are occupied at equilibrium, for simple one-to-one binding. A lower Kd goes with tighter binding. For the molecule B2, the equilibrium dissociation constant (Kd) in test [2] was roughly 1.7 nM.
